How the values were obtained:
[1] = biological target: T1, human CD47 on primary human platelets (human, UniProt Q08722 19-323); assay: FACS, binding to primary human platelets, donor1
T1 construct: whole, on cells

[2] = biological target: T1, human CD47 on primary human platelets; assay: FACS, binding to primary human platelets, donor 2

EC50 (read off the curve) [1]: ~0.7 nM
EC50 (read off the curve) [2]: ~0.3 nM
B1: M1 #21, anti-CD47 antibody (WO2022063316A1) (antibody, V domains shown)
VH: QVQLQQWGAGLLKPSETLSLTCAVYGGSFSGYYWSWIRQPPGKGLEWIGEINQSGSTNYNPSLKSRVTISVDTSKNQFSLRLSSVTAADTAMYYCARFTGRPYYGMDVWGQGTTVTVSS
VL: SYELTQPPSVSATPGQRVTISCSGSESNIGSHKVKWYQQFAGAAPRLLIHGNDQRFSGVPDRFSGSKSGTSASLAISGLQSEDEADYYCAAWDDSLYGRVFGGGTKLTVL
